Test results: paper PMC5139991, “SEC-SANS: size exclusion chromatography combined in situ with small-angle neutron scattering1” (Journal of Applied Crystallography, 2016)

Target: the molecule itself
Test: AUC; ultracentrifugation of Sir2a; no details given (to be detailed in a later publication)

B1: Plasmodium falciparum Sir2a (enzyme, UniProt Q8IE47 1-273, looked up)
chain: MGNLMISFLKKDTQSITLEELAKIIKKCKHVVALTGSGTSAESNIPSFRGSSNSIWSKYDPRIYGTIWGFWKYPEKIWEVIRDISSDYEIEINNGHVALSTLESLGYLKSVVTQNVDGLHEASGNTKVISLHGNVFEAVCCTCNKIVKLNKIMLQKTSHFMHQLPPECPCGGIFKPNIILFGEVVSSDLLKEAEEEIAKCDLLLVIGTSSTVSTATNLCHFACKKKKKIVEINISKTYITNKMSDYHVCAKFSELTKVANILKGSSEKNKKIM
notes: Sir2a of Plasmodium falciparum, codon-optimized gene PF3D7_1328800 cloned into pET-28a; printed size 34 kDa; Protonated protein; The His tag is inferred from pET-28a and the TALON purification; removal of the tag is not mentioned; source: E. coli BL21 DE3, purified (HiTrap TALON, gel filtration)
  stoichiometry N: 3
